# From patent US20130166268
# System: full-length rat proMMP9(1-708) (SEQ ID NO:11)
# Sequence (chain, as listed by the source): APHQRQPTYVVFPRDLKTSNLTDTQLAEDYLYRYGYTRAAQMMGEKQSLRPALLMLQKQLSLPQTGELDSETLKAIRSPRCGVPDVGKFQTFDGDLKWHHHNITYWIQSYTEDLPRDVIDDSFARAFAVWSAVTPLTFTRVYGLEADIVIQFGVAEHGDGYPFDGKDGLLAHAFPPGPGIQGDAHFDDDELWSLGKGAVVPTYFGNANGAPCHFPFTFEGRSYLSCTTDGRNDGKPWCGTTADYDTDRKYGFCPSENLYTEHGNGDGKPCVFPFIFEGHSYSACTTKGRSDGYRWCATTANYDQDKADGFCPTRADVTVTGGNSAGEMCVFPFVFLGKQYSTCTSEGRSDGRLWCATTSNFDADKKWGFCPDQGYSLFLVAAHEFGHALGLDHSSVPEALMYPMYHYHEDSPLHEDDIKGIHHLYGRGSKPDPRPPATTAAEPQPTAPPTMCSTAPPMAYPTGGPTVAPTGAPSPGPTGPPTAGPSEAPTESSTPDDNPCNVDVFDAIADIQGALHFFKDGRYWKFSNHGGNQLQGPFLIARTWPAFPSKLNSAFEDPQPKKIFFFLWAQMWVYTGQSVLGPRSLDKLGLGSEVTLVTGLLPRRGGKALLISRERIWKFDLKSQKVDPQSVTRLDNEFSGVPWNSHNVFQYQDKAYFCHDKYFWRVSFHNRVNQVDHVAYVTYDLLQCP
# Sequence of human catalytic MMP3, MMP3(100-265) (SEQ ID NO:8) (chain, as listed by the source): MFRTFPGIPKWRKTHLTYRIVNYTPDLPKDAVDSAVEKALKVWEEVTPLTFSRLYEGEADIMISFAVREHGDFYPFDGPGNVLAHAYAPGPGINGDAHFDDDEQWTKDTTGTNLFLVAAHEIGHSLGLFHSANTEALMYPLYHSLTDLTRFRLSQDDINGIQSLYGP
substance,measurement,value
"human catalytic MMP3, MMP3(100-265) (SEQ ID NO:8)",conversion of proMMP9 to catalytic MMP9 (Western blot standard),full-length rat proMMP9(1-708) (SEQ ID NO:11) converted to catalytic rat MMP9 by catalytic MMP3
